B1: target 1 C4U,C7U (mixed)
RNA 1: CACCCGUGCAAAAAUGCAGGGGUCUAAAACUGAGCGGAUAACCUCUCUAUGG
RNA 2: GGGAAUGGAUCCACAUCUACGAAUUCGUACCAUAGAGAGGUUAUUCGUUCACCGAGAUCGGAAGAGCACACGU
B2: target 1 MT 5'PFS CUA 3'PFS ACC (mixed)
RNA 1: CACCCGUGCAAAAAUGCAGGGGUCUAAAACUGAGCGGAUAACCUCUCUAUGG
RNA 2: GGGAAUGGAUCCACAUCUACGAAUUCCUACCAUAGAGAGGUUAUCCGCUCAACCAGAUCGGAAGAGCACACGU
B3: target 1 MT 5'PFS CUA 3'PFS ACA (mixed)
RNA 1: CACCCGUGCAAAAAUGCAGGGGUCUAAAACUGAGCGGAUAACCUCUCUAUGG
RNA 2: GGGAAUGGAUCCACAUCUACGAAUUCCUACCAUAGAGAGGUUAUCCGCUCAACAAGAUCGGAAGAGCACACGU
B4: target 1 insC 3' of 11,insU 3' of 5 (mixed)
RNA 1: CACCCGUGCAAAAAUGCAGGGGUCUAAAACUGAGCGGAUAACCUCUCUAUGG
RNA 2: GGGAAUGGAUCCACAUCUACGAAUUCGUACCAUAGAGAGGUCUAUCCGUCUCACCGAGAUCGGAAGAGCACACGU
B5: target 1 MT 5'PFS UCA 3'PFS CGC (mixed)
RNA 1: CACCCGUGCAAAAAUGCAGGGGUCUAAAACUGAGCGGAUAACCUCUCUAUGG
RNA 2: GGGAAUGGAUCCACAUCUACGAAUUCUCACCAUAGAGAGGUUAUCCGCUCACGCAGAUCGGAAGAGCACACGU
B6: target 1 MT 5'PFS UUG 3'PFS UUA (mixed)
RNA 1: CACCCGUGCAAAAAUGCAGGGGUCUAAAACUGAGCGGAUAACCUCUCUAUGG
RNA 2: GGGAAUGGAUCCACAUCUACGAAUUCUUGCCAUAGAGAGGUUAUCCGCUCAUUAAGAUCGGAAGAGCACACGU
B7: target 1 MT 5'PFS UCA 3'PFS CGG (mixed)
RNA 1: CACCCGUGCAAAAAUGCAGGGGUCUAAAACUGAGCGGAUAACCUCUCUAUGG
RNA 2: GGGAAUGGAUCCACAUCUACGAAUUCUCACCAUAGAGAGGUUAUCCGCUCACGGAGAUCGGAAGAGCACACGU
B8: target 1 MT 5'PFS UCA 3'PFS AGG (mixed)
RNA 1: CACCCGUGCAAAAAUGCAGGGGUCUAAAACUGAGCGGAUAACCUCUCUAUGG
RNA 2: GGGAAUGGAUCCACAUCUACGAAUUCUCACCAUAGAGAGGUUAUCCGCUCAAGGAGAUCGGAAGAGCACACGU
B9: target 1 MT 5'PFS GUG 3'PFS UUU (mixed)
RNA 1: CACCCGUGCAAAAAUGCAGGGGUCUAAAACUGAGCGGAUAACCUCUCUAUGG
RNA 2: GGGAAUGGAUCCACAUCUACGAAUUCGUGCCAUAGAGAGGUUAUCCGCUCAUUUAGAUCGGAAGAGCACACGU
B10: target 1 MT 5'PFS UCA 3'PFS AGU (mixed)
RNA 1: CACCCGUGCAAAAAUGCAGGGGUCUAAAACUGAGCGGAUAACCUCUCUAUGG
RNA 2: GGGAAUGGAUCCACAUCUACGAAUUCUCACCAUAGAGAGGUUAUCCGCUCAAGUAGAUCGGAAGAGCACACGU
B11: target 1 insA 3' of 21,insC 3' of 13 (mixed)
RNA 1: CACCCGUGCAAAAAUGCAGGGGUCUAAAACUGAGCGGAUAACCUCUCUAUGG
RNA 2: GGGAAUGGAUCCACAUCUACGAAUUCGUACCAAUAGAGAGCGUUAUCCGCUCACCGAGAUCGGAAGAGCACACGU
B12: target 1 MT 5'PFS GUG 3'PFS UUA (mixed)
RNA 1: CACCCGUGCAAAAAUGCAGGGGUCUAAAACUGAGCGGAUAACCUCUCUAUGG
RNA 2: GGGAAUGGAUCCACAUCUACGAAUUCGUGCCAUAGAGAGGUUAUCCGCUCAUUAAGAUCGGAAGAGCACACGU
B13: target 1 MT 5'PFS CAA 3'PFS AAU (mixed)
RNA 1: CACCCGUGCAAAAAUGCAGGGGUCUAAAACUGAGCGGAUAACCUCUCUAUGG
RNA 2: GGGAAUGGAUCCACAUCUACGAAUUCCAACCAUAGAGAGGUUAUCCGCUCAAAUAGAUCGGAAGAGCACACGU
B14: target 1 MT 5'PFS CCC 3'PFS CUG (mixed)
RNA 1: CACCCGUGCAAAAAUGCAGGGGUCUAAAACUGAGCGGAUAACCUCUCUAUGG
RNA 2: GGGAAUGGAUCCACAUCUACGAAUUCCCCCCAUAGAGAGGUUAUCCGCUCACUGAGAUCGGAAGAGCACACGU
B15: target 1 MT 5'PFS CUA 3'PFS ACG (mixed)
RNA 1: CACCCGUGCAAAAAUGCAGGGGUCUAAAACUGAGCGGAUAACCUCUCUAUGG
RNA 2: GGGAAUGGAUCCACAUCUACGAAUUCCUACCAUAGAGAGGUUAUCCGCUCAACGAGAUCGGAAGAGCACACGU
B16: target 1 MT 5'PFS CAG 3'PFS AGC (mixed)
RNA 1: CACCCGUGCAAAAAUGCAGGGGUCUAAAACUGAGCGGAUAACCUCUCUAUGG
RNA 2: GGGAAUGGAUCCACAUCUACGAAUUCCAGCCAUAGAGAGGUUAUCCGCUCAAGCAGAUCGGAAGAGCACACGU
B17: target 1 MT 5'PFS AAC 3'PFS UUG (mixed)
RNA 1: CACCCGUGCAAAAAUGCAGGGGUCUAAAACUGAGCGGAUAACCUCUCUAUGG
RNA 2: GGGAAUGGAUCCACAUCUACGAAUUCAACCCAUAGAGAGGUUAUCCGCUCAUUGAGAUCGGAAGAGCACACGU
B18: target 1 MT 5'PFS UCG 3'PFS UCU (mixed)
RNA 1: CACCCGUGCAAAAAUGCAGGGGUCUAAAACUGAGCGGAUAACCUCUCUAUGG
RNA 2: GGGAAUGGAUCCACAUCUACGAAUUCUCGCCAUAGAGAGGUUAUCCGCUCAUCUAGAUCGGAAGAGCACACGU
B19: target 1 MT 5'PFS AGC 3'PFS CUA (mixed)
RNA 1: CACCCGUGCAAAAAUGCAGGGGUCUAAAACUGAGCGGAUAACCUCUCUAUGG
RNA 2: GGGAAUGGAUCCACAUCUACGAAUUCAGCCCAUAGAGAGGUUAUCCGCUCACUAAGAUCGGAAGAGCACACGU
B20: target 1 MT 5'PFS AAA 3'PFS AGA (mixed)
RNA 1: CACCCGUGCAAAAAUGCAGGGGUCUAAAACUGAGCGGAUAACCUCUCUAUGG
RNA 2: GGGAAUGGAUCCACAUCUACGAAUUCAAACCAUAGAGAGGUUAUCCGCUCAAGAAGAUCGGAAGAGCACACGU
B21: target 1 MT 5'PFS UCA 3'PFS AGA (mixed)
RNA 1: CACCCGUGCAAAAAUGCAGGGGUCUAAAACUGAGCGGAUAACCUCUCUAUGG
RNA 2: GGGAAUGGAUCCACAUCUACGAAUUCUCACCAUAGAGAGGUUAUCCGCUCAAGAAGAUCGGAAGAGCACACGU
B22: target 1 MT 5'PFS GUG 3'PFS GUA (mixed)
RNA 1: CACCCGUGCAAAAAUGCAGGGGUCUAAAACUGAGCGGAUAACCUCUCUAUGG
RNA 2: GGGAAUGGAUCCACAUCUACGAAUUCGUGCCAUAGAGAGGUUAUCCGCUCAGUAAGAUCGGAAGAGCACACGU
B23: target 1 MT 5'PFS CCA 3'PFS AUU (mixed)
RNA 1: CACCCGUGCAAAAAUGCAGGGGUCUAAAACUGAGCGGAUAACCUCUCUAUGG
RNA 2: GGGAAUGGAUCCACAUCUACGAAUUCCCACCAUAGAGAGGUUAUCCGCUCAAUUAGAUCGGAAGAGCACACGU
B24: target 1 MT 5'PFS CUA 3'PFS ACU (mixed)
RNA 1: CACCCGUGCAAAAAUGCAGGGGUCUAAAACUGAGCGGAUAACCUCUCUAUGG
RNA 2: GGGAAUGGAUCCACAUCUACGAAUUCCUACCAUAGAGAGGUUAUCCGCUCAACUAGAUCGGAAGAGCACACGU
B25: target 1 MT 5'PFS CCC 3'PFS CUA (mixed)
RNA 1: CACCCGUGCAAAAAUGCAGGGGUCUAAAACUGAGCGGAUAACCUCUCUAUGG
RNA 2: GGGAAUGGAUCCACAUCUACGAAUUCCCCCCAUAGAGAGGUUAUCCGCUCACUAAGAUCGGAAGAGCACACGU
B26: target 1 MT 5'PFS CAG 3'PFS AGU (mixed)
RNA 1: CACCCGUGCAAAAAUGCAGGGGUCUAAAACUGAGCGGAUAACCUCUCUAUGG
RNA 2: GGGAAUGGAUCCACAUCUACGAAUUCCAGCCAUAGAGAGGUUAUCCGCUCAAGUAGAUCGGAAGAGCACACGU
B27: target 1 MT 5'PFS AGC 3'PFS CUU (mixed)
RNA 1: CACCCGUGCAAAAAUGCAGGGGUCUAAAACUGAGCGGAUAACCUCUCUAUGG
RNA 2: GGGAAUGGAUCCACAUCUACGAAUUCAGCCCAUAGAGAGGUUAUCCGCUCACUUAGAUCGGAAGAGCACACGU

The target in the data set is T1, EsCas13d, nuclease-dead (Eubacterium siraeum, UniProt B0MS50, R295A;H300A;R849A;H854A).
T1 sequence: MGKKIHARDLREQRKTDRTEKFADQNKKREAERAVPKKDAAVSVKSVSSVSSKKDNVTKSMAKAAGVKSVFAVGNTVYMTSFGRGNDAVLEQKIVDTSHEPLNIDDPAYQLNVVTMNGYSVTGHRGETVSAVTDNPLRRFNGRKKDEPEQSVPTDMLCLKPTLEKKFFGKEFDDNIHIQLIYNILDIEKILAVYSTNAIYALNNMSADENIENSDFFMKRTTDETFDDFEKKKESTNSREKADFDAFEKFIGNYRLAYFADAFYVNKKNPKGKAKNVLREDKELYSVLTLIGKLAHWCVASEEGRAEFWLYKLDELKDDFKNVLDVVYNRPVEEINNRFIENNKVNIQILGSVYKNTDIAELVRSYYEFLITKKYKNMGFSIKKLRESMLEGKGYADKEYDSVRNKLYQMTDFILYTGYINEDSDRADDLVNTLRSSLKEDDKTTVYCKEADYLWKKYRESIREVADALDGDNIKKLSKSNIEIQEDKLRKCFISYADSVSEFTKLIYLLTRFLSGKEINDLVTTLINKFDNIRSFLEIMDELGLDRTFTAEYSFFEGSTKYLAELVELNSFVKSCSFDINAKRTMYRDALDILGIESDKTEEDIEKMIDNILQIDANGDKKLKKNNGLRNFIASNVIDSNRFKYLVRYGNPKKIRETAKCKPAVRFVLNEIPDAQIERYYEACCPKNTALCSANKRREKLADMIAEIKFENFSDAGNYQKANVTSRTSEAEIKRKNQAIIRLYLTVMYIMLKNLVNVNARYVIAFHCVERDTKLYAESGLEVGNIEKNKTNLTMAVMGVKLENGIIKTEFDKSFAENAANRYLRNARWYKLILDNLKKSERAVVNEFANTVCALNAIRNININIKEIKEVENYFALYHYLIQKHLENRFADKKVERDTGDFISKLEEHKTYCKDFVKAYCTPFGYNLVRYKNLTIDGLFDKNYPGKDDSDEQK
The data set is described as follows: crRNA (strand 1, pre-loaded); Mg2+; 40 mM Tris-HCl pH 7.5, 150 mM NaCl, 6 mM MgCl2, 1 mM DTT, 0.1% Tween-20, 0.2 mg/ml BSA; 25 C; 10 min per concentration, then washed. To be noted: tags: His6-TwinStrep-SUMO cleaved; N-terminal SNAP kept (SNAP-Surface 488); label: 3' end held by stalled T7 RNA polymerase.
What is called Kd is the constant that tells how readily two partners part at equilibrium. A high value points to a looser complex. Molecule B1 displayed an equilibrium dissociation constant (Kd) of 29 ± 5 nM.

Consider B2, for which the Kd was determined as 5 ± 1.85 nM. Against the preceding molecule, the Kd is about 5.8-fold lower. B3 returned a Kd of 9.65 ± 2.5 nM. Next, B4: 15 ± 0.8 nM; B5: 10.8 ± 3.85 nM. Under B6 stands 20.1 ± 3.2 nM; under B7, 52.5 ± 25 nM; under B8, roughly 100 nM. For the molecule B9, binding was characterised by a dissociation constant (Kd) of 9.05 ± 0.495 nM. Next, B10: 24.6 ± 5.5 nM; B11: 32 ± 4 nM; B12: 10.6 ± 0.65 nM. Under B13 stands roughly 25.5 nM; under B14, roughly 9.5 nM; under B15, 6.05 ± 1.8 nM.

Molecule B16 yielded a dissociation constant (Kd) of 20.5 ± 9 nM. As to B17, the dissociation constant (Kd) is 15.3 ± 3.3 nM. As to B18, the Kd came to 36 ± 10.5 nM. B19 displayed a Kd of 13.9 ± 4.8 nM.

B20: the Kd is 33 ± 12.5 nM.

Take B21: the dissociation constant Kd is 20.5 ± 8.5 nM. On to B22, for which the Kd stood at 12.2 ± 1.6 nM. B23 came in with a dissociation constant Kd of 2.62 ± 0.595 nM.

B24 yielded a Kd of 4.95 ± 1 nM. Compared with the last molecule, the Kd is about 1.9-fold higher. Molecule B25 displayed an equilibrium dissociation constant (Kd) of roughly 17 nM. Consider B26, for which the Kd came to 57 ± 22.5 nM. On to B27, for which the Kd amounted to 9.35 ± 3.2 nM.

These data come from PMC10786891, “Massively parallel profiling of RNA-targeting CRISPR-Cas13d”.
